The target of assay [1] is T1, histidine-tagged extracellular domain of human Fc gamma receptor IIb/c (Pichia pastoris produced) (human, UniProt P31994 46-217).
T1 construct: also called FcγRIIb/c; FcγRIIb
T1 sequence: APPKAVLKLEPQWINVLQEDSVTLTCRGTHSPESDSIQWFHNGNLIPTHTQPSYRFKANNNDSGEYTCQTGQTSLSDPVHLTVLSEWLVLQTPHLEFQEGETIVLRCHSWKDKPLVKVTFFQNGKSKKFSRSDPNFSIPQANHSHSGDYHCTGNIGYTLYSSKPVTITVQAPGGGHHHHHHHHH
Put plainly: FcγR ELISA, receptor coated on plate. For orientation: In an ELISA, binding on a coated surface is turned into a signal by an enzyme label.
Description: (§1) High protein binding 96-well plates (Corning Costar, Lowell, Mass.) were coated with 100 μl per well of Fcγ receptor solutions in PBS at the following concentrations: 1 μg/mL for FcγRI (R & D Systems) and FcγRIIa (Pichia pastoris produced), 2 μg/mL for FcγRIIb/c (P. pastoris produced), 0.4 μg/mL for FcγRIIIa-V158, and 0.8 μg/mL for FcγRIIIa-F158 (both P. pastoris produced).
(§2) For FcγRI, the antibody was coated in assay diluent (1% BSA, PBS, 0.05% Tween20) in monomeric form. For all other receptors, the antibody was coated after dimerization with alkaline phosphatase conjugated anti-human IgG F(ab′)₂ (Jackson ImmunoResearch, West Grove, Pa.) for one hour at room temperature. FcγRI bound antibody was also detected using the F(ab′)₂ and all plates were quantified by measuring excitation at 340 nm and emission at 465 nm after an 18 hour incubation with SuperPhosk (Virolabs, Chantilly, Va.).

Assay [2] deals with T2, FcγRI (Fc receptor gamma-chain I, CD64) (UniProt P12314 16-288).
T2 construct: also called FcγR1
T2 sequence (P12314 16-288 limits assumed): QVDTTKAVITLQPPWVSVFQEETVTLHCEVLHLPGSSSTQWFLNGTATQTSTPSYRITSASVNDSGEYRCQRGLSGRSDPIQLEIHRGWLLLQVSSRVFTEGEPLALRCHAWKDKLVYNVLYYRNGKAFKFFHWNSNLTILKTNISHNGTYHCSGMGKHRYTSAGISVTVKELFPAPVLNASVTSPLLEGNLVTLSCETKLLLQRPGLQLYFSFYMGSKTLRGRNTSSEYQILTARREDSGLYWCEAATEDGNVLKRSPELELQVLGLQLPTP
Put plainly: FcγR ELISA.
Description: as §1, §2

B1: anti-PCSK9 double mutein antibody F243A/V264A produced in GFI6.0 (antibody, human IgG1, kappa)
heavy: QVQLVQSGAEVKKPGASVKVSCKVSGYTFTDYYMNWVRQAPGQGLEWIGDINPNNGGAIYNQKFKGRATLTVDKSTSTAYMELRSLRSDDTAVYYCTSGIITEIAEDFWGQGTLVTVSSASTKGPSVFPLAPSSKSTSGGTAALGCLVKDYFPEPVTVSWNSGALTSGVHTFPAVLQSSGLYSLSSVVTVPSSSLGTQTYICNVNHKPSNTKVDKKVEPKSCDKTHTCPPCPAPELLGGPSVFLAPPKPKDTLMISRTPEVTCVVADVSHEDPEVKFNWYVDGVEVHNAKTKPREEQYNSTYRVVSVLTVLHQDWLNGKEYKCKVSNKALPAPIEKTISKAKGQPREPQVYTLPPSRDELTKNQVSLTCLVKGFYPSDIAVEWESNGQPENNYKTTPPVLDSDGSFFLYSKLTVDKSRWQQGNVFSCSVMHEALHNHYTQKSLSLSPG
light: DIQMTQSPSSLSASVGDRVTITCKASQNVGTNVVWYQQKPGKAPKALIHSASYRYSGVPSRFSGSGSGTDFTLTISSLQPEDFATYYCQQYKTYPYTFGQGTKVEIKRTVAAPSVFIFPPSDEQLKSGTASVVCLLNNFYPREAKVQWKVDNALQSGNSQESVTEQDSKDSTYSLSSTLTLSKADYEKHKVYACEVTHQGLSSPVTKSFNRGEC
With B1, in assay [1], the binding result is recorded as “no binding”. The “fold reduction in binding vs parent antibody (produced in GFI5.0)” value in assay [2] is approximately 4 fold.

The values above are taken from patent publication US20130071390A1 (Merck Sharp & Dohme, published 2013).
